Data set [1] deals with the molecule itself. Nature of the data set: cross-linking; engineered disulfide bonds (D682C/N691C) across the Fn3–Fn3' interface; SDS-PAGE with Coomassie blue under reducing and non-reducing conditions.
Data set [2] has as its target T1, mouse Tie2 Ig3–Fn3 (Mus musculus, UniProt Q02858).
T1 construct: mouse Tie2, Ig3–Fn3, residues 349–737; also called mTie2 Ig3–Fn3; mTie2
The data set can be described thus: BLI; Octet, 30 °C; humanized IgG1s and mouse Tie2; how the humanized IgG1s were loaded is not told (Supplementary Fig. 5f). Particulars: both partners purified. A general note: Biolayer interferometry detects binding as a change in optical thickness at a sensor tip.

The target in data set [3] is T2, human Tie2 extracellular domain (hTie2 ECD) (human, UniProt Q02763).
T2 construct: human Tie2, extracellular domain, residues 23–735 of human Tie2; Host, tags and purification of the ECD are not described; also called Human Tie2 ECD; source: produced in house
The data set can be described thus: SPR; Biacore T200; hTie2 ECD immobilised on CM5 chip by amine coupling (10 mM acetate pH 5.5); antibodies flowed at 0-64 nM, 300 s association, 300 s dissociation, 30 µl/min; HBS-EP+ buffer; 1:1-binding model, global fit. Particulars: both partners purified.

Data set [4] has as its target T1, mouse Tie2 Ig3–Fn3. Nature of the data set: BLI; Octet, 30 °C; mouse hTAAB (10 μg/ml) loaded on anti-mouse IgG Fc capture (AMC) biosensors; 1600 nM mouse Tie2 Ig3–Fn3 in kinetics buffer (0.01% BSA, 0.002% Tween-20, 0.005% NaN3 in PBS); 600 s association, 600 s dissociation. Particulars: both partners purified.

Positions count from the first letter of the chain named. Names and notes keep the numbering of the source.

T2 sequence (Q02763 23-735): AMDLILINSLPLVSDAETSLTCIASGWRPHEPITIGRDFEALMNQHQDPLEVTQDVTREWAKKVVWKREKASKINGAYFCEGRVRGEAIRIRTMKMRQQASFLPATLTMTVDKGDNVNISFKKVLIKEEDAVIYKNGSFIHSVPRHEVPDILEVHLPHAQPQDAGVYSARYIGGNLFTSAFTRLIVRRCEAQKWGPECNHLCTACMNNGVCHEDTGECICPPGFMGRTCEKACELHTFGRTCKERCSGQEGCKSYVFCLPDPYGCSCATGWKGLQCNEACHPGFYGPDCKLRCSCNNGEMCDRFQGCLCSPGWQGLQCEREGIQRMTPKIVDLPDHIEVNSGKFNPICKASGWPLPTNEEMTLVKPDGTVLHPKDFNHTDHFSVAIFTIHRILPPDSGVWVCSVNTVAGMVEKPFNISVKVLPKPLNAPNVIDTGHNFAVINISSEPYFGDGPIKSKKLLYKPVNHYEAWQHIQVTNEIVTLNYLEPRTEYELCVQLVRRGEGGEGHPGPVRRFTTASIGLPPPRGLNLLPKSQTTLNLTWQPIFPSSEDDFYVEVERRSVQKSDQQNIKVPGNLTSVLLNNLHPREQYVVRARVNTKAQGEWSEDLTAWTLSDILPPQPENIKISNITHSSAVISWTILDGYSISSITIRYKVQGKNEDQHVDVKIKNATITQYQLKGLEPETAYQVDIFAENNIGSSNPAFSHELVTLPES
T1 sequence (Q02858 349-737): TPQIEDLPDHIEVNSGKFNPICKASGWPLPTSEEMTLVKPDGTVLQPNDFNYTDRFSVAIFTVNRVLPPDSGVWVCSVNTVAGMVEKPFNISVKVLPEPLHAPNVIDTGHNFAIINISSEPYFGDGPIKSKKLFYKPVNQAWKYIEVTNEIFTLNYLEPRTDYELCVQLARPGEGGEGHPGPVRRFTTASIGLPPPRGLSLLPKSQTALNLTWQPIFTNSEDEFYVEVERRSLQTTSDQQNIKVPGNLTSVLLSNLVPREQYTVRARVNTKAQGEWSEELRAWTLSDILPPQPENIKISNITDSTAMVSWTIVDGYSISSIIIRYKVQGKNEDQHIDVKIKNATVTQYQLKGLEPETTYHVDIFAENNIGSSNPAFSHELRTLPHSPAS

B1: hTie2 Ig3–Fn3 D682C/N691C (domain or fragment, human, UniProt Q02763 349-738, looked up)
chain: TPKIVDLPDHIEVNSGKFNPICKASGWPLPTNEEMTLVKPDGTVLHPKDFNHTDHFSVAIFTIHRILPPDSGVWVCSVNTVAGMVEKPFNISVKVLPKPLNAPNVIDTGHNFAVINISSEPYFGDGPIKSKKLLYKPVNHYEAWQHIQVTNEIVTLNYLEPRTEYELCVQLVRRGEGGEGHPGPVRRFTTASIGLPPPRGLNLLPKSQTTLNLTWQPIFPSSEDDFYVEVERRSVQKSDQQNIKVPGNLTSVLLNNLHPREQYVVRARVNTKAQGEWSEDLTAWTLSDILPPQPENIKISNITHSSAVISWTILDGYSISSITIRYKVQGKNECQHVDVKIKCATITQYQLKGLEPETAYQVDIFAENNIGSSNPAFSHELVTLPESQAP
modifications: two intermolecular disulfide bonds between the introduced cysteines 682 and 691
notes: human Tie2, Ig3–Fn3, residues 349–738, with D682C and N691C; Made by overlap extension PCR from the pFuse-hTie2 Ig3–Fn3–hIgG1–Fc construct; also called constitutive Tie2 Ig3–Fn3 dimer; Tie2 dimeric mutant; source: Expi293F, secreted as Fc fusion, purified as for hTie2 Ig3–Fn3 (MabSelect SuRe, Fc removed by thrombin); not shown: Fc (human IgG1), C-terminal, cleaved
As for B1, in data set [1], the binding result is recorded as “binds”.

B2: hzTAAB-H1L1 (antibody, V domains shown)
VH: QVQLVQSGAEVKKPGASVKVSCKASGYSFTSYWMHWVRQAPGQGLEWMGIIHPSDSETRYAQKFQGRVTMTRDTSTSTVYMELSSLRSEDTAVYYCARGLYGNSWGQGTLVTVSS
VL: DIQMTQSPSSLSASVGDRVTITCRASQDIGISLGWYQQKPGKAPKRLIYATSSLQSGVPSRFSGSGSGTEFTLTISSLQPEDFATYYCLQYASSPYTFGQGTKLEIK
For the molecule B2, the binding result in the data set with mouse Tie2 Ig3–Fn3 [2] is on record as “no binding (tested: 1600 nM)”.

B3: hzTAAB-H2L2 (antibody, V domains shown)
VH: B2 VH with R72V, T74K
VL: B2 VL with G34N, Y36L, Q55D, G66R
In the case of B3, the binding result with mouse Tie2 Ig3–Fn3 [2] is recorded as “no binding (tested: 1600 nM)”.

B4: hzTAAB-H2L1 (antibody, V domains shown)
VH: B2 VH with R72V, T74K
VL: B2 VL
For the molecule B4, the binding result with mouse Tie2 Ig3–Fn3 [2] is “no binding (tested: 1600 nM)”.

B5: hzTAAB-H1L2 (antibody, V domains shown)
VH: B2 VH
VL: B2 VL with G34N, Y36L, Q55D, G66R
Consider B5, for which the binding result in the data set with mouse Tie2 Ig3–Fn3 [2] is “no binding (tested: 1600 nM)”.

B6: human Tie2-activating antibody (hTAAB), mouse IgG1 (antibody, V domains shown)
VH: QVQLQQPGAELVRPGASVKLSCKASGYSFTSYWMNWVKQRPGQGLEWIGMIHPSDSETRLNQKFMDKATLTVDKSSSTAYMQLSSPTSEDSAVYYCARGLYGNSWGQGTLVTVSA
VL: DIQMTQSPSSLSASLGERVSLTCRASQDIGISLNWLQQEPDGTIKRLIYATSSLDSGVPKRFSGSRSGSDYSLTISSLESEDFVDYYCLQYASSPYTFGGGTKLEIK
notes: heavy-chain variable region of hTAAB (clone 3H7; closest germline mIGHV1-61*01); mouse IgG1 heavy-chain constant region; light-chain variable region of hTAAB (clone 3H7; closest germline mIGKV9-120*01); mouse kappa light-chain constant region; Mouse IgG1 from the hybridoma; also called 3H7; mouse hTAAB; source: B-cell hybridoma clone 3H7, serum-free culture supernatant, purified (Protein G); …
In general, Kd refers to the concentration at which binding is half-saturated. Read a high Kd as a looser complex. Usually koff stands for the first-order rate constant of dissociation. A low value points to slow dissociation. What is called kon is the second-order rate constant of association. High values mean fast association, low ones slow association. In data set [3], B6 gave a Kd of 4.2 nM, an off-rate constant (koff) of 0.0006 s⁻¹ and a kon of 140000 M⁻¹ s⁻¹. In addition, the binding result in the data set with mouse Tie2 Ig3–Fn3 [4] is reported as “no binding (tested: 1600 nM)”.

The record behind these values is publication PMC8560823, “Structural insights into the clustering and activation of Tie2 receptor mediated by Tie2 agonistic antibody” (Nature Communications, 2021).
